Source: patent US20240035010, “COMPOSITIONS COMPRISING A VARIANT POLYPEPTIDE AND USES THEREOF” (Arbor Biotechnologies, Inc., published 2024)

Assays:
[1] = biological target: T1, variant nuclease SEQ ID NO: 53 (P14R, D32R, I61R, E311R, T338G, E736G); assay: cell_activity; % indels; HEK293T; PAM 5'-TTTG-3'; conditions: tags: pcDNA3.1 expression
T1 chain: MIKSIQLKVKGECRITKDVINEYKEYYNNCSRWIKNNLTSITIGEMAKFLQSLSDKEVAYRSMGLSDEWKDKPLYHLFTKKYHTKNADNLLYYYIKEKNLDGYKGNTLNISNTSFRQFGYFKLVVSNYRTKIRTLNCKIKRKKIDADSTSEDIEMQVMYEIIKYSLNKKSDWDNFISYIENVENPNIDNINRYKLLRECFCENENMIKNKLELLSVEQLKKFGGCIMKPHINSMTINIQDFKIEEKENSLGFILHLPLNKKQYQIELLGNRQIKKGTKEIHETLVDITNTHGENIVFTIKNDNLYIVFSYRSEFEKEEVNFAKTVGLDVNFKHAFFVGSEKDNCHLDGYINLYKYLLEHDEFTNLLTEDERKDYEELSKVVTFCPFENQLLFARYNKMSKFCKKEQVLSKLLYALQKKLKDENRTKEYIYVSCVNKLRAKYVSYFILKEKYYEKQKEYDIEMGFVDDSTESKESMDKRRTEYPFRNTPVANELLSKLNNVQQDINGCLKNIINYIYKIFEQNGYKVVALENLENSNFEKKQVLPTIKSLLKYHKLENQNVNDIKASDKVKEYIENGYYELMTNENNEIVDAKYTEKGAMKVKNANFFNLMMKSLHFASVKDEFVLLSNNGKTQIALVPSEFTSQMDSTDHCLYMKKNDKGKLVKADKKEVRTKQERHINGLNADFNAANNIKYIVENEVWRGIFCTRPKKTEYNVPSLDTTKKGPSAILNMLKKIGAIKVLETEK

[2] = biological target: T2, variant nuclease D590G combination (P14R, D32R, I61R, E311R, D590G); assay: cell_activity; PAM 5'-TTTG-3'; conditions: tags: pcDNA3.1 expression
T2 chain: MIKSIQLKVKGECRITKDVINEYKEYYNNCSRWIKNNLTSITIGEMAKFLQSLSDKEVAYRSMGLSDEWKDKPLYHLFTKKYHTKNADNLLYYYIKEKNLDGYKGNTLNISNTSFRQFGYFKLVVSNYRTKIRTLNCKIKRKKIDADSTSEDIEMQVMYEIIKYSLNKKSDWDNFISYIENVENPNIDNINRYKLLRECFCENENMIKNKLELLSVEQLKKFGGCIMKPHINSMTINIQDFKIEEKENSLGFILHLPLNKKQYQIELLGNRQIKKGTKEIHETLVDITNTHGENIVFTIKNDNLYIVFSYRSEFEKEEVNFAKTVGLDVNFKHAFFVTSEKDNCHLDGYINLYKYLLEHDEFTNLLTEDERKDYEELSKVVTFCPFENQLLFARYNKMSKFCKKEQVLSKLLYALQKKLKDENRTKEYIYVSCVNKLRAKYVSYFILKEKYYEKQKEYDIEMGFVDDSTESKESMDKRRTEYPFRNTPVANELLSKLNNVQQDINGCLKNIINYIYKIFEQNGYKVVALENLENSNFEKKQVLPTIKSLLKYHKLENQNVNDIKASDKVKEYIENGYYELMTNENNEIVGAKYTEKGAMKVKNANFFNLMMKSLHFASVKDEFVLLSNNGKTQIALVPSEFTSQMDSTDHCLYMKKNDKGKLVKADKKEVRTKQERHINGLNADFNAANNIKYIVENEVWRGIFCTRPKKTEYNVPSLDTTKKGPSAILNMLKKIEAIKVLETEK
Protocol: Approximately 16 hours prior to transfection, 25,000 HEK293T cells in DMEM/10% FBS+Pen/Strep (D10 media) were plated into each well of a 96-well plate. On the day of transfection, the cells were 70-90% confluent. For each well to be transfected, a mixture of Lipofectamine 2000™ and Opti-MEM™ was prepared and incubated at room temperature for 5 minutes (Solution 1). After incubation, the Lipofectamine 2000™:Opti-MEM™ mixture was added to a separate mixture containing nuclease plasmid, RNA guide plasmid, and Opti-MEM™ (Solution 2). In the case of negative controls, the RNA guide plasmid was not included in Solution 2. Solutions 1 and 2 were mixed by pipetting up and down, then incubated at room temperature for 25 minutes. Following incubation, the Solution 1 and 2 mixture was added dropwise to each well of a 96-well plate containing the cells. Approximately 72 hours post transfection, cells were trypsinized by adding TrypLE™ to the center of each well and incubating at 37° C. for approximately 5 minutes. D10 media was then added to each well and mixed to resuspend cells. The resuspended cells were centrifuged at 500 g for 10 minutes to obtain a pellet, and the supernatant was discarded. The cell pellet was then resuspended in QuickExtract™ buffer (Lucigen®), and cells were incubated at 65° C. for 15 minutes, 68° C. for 15 minutes, and 98° C. for 10 minutes.
This Example describes assessment of indel activity at multiple target sites using the wild-type polypeptide of SEQ ID NO: 3 or variant polypeptides of Table 4. The variant polypeptides were cloned into a pcDNA3.1 backbone (Invitrogen), and the cells were transfected as described in Example 7.
The percentage of NGS reads containing indels (% indels) were calculated. For each variant polypeptide and target, % indels were averaged across two bioreplicates and two technical replicates. These values were then compared to % indels of the wild-type polypeptide of SEQ ID NO: 3.

B1: AAVS1 crRNA ; AAVS1 target (ssRNA ; dsDNA)
RNA: CUUGUUGUAUAUGUCCUUUUAUAGGUAUUAAACAACUGAGAAUGGUGCGUCCUAGG
DNA 1: TGAGAATGGTGCGTCCTAGG
DNA 2: CCTAGGACGCACCATTCTCA
Q: How did the indel editing activity [1] turn out when B1 was run?
A: 6.11 fold of WT

Q: What about the indel activity [2] of the same binder?
A: 5.96 fold of WT
